Six molecules from US20160279193A1 (NORWEGIAN UNIVERSITY OF SCIENCE AND TECHNOLOGY, published 2016) can be followed below.

Assay [1] concerns the target PCNA (endogenous, in human cells and their extracts) (human) (UniProt P12004). Kind of assay: co-IP with anti-PCNA antibody from formaldehyde-crosslinked HaCaT cell extract, gel, Orbitrap MS.
The target in assay [2] is TAO1 (human) (UniProt Q7L7X3). Kind of assay: mock co-IP with anti-TOM20 antibody from crosslinked HaCaT cell extract, Orbitrap MS.
Assay [3] has as its target MK2 (human) (UniProt P49137). The description is as above.
For assay [4], the target named is PACT (human) (UniProt O75569). The description is as above.
Assay [5] has as its target T1, PCNA labeled with a fluorescent molecule (UniProt P12004 1-261, labeled with a fluorescent molecule (dye and site not stated)).
T1 construct: also called proliferating cell nuclear antigen
Kind of assay: microscale thermophoresis, fluorescently labelled PCNA, peptide titrated. The protocol:
Microscale thermophoresis (MST) was used to determine the dissociation constant for various APIM containing peptides.
PCNA was labeled with a fluorescent molecule. The concentration of PCNA was kept constant, whereas dilutions of each APIM containing peptide were prepared (1:1).

Sequence of PCNA (endogenous, in human cells and their extracts) (human) (P12004 whole entry): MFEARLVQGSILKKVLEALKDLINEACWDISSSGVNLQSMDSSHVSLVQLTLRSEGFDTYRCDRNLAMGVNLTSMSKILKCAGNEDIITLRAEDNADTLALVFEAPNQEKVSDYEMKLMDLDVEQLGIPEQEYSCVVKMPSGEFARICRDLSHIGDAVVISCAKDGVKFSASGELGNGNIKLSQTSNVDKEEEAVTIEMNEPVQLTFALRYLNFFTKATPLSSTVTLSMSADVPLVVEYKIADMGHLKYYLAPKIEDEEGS
Sequence of PACT (human) (O75569 whole entry): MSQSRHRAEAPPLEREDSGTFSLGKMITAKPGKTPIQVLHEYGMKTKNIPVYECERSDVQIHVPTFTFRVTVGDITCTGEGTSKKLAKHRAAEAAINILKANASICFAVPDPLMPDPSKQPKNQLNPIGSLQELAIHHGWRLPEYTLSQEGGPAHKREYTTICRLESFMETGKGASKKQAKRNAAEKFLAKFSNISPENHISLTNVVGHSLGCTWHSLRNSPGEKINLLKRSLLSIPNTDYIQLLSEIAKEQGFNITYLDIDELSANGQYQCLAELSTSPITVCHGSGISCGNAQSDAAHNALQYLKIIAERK
Sequence of TAO1 (human) (Q7L7X3 whole entry): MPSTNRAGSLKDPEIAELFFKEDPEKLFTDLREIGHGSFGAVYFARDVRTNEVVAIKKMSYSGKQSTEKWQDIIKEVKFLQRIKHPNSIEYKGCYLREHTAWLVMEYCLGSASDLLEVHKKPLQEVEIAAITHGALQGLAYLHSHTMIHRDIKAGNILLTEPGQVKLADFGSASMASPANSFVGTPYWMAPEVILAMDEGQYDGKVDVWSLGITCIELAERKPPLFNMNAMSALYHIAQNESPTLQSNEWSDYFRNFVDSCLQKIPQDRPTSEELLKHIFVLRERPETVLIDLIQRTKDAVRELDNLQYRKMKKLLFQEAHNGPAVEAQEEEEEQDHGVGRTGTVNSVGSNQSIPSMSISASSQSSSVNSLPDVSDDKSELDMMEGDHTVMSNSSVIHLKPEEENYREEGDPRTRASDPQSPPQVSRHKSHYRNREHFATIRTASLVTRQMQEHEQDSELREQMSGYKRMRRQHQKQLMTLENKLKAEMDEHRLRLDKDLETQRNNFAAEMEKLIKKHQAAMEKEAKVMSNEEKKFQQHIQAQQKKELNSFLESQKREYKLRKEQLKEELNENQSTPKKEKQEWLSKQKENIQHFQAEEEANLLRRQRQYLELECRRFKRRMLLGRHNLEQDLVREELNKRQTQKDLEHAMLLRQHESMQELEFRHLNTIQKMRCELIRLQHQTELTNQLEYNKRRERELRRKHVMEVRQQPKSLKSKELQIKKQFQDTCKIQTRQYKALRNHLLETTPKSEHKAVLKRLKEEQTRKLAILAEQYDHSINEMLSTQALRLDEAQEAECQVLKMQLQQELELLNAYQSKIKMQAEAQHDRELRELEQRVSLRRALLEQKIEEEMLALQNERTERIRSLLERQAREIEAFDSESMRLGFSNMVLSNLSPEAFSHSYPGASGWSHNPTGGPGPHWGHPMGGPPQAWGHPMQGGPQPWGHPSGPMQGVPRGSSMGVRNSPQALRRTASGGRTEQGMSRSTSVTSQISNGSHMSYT
T1 sequence (P12004 whole entry): as the sequence (P12004 whole entry) above
Sequence of MK2 (human) (P49137 whole entry): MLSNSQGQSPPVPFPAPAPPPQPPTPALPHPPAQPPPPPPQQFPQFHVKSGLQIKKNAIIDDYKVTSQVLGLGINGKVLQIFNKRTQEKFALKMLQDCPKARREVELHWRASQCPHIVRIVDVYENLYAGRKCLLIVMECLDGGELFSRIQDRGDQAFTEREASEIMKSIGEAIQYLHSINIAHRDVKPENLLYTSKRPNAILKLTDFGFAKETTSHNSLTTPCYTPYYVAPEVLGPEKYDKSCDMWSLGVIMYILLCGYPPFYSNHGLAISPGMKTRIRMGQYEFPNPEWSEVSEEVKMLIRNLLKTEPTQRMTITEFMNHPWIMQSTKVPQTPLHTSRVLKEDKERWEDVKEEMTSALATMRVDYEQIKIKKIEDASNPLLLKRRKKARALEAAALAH

In assay [1], “MK2 (from UniProt P49137 1-400) (enzyme)” showed a Mascot score (PCNA pull down) of 27.6 and a Sequest score (PCNA pull down) of 6.33.

In assay [1], PACT (from UniProt O75569 1-313) displayed a Mascot score (PCNA pull down) of 23 and a Sequest score (PCNA pull down) of 2.06.

In assay [1], “TAO1 (from UniProt Q7L7X3 1-1001) (enzyme)” had a Mascot score (PCNA pull down) of 49.8 and a Sequest score (PCNA pull down) of 11.1.

Regarding TOM20 (from UniProt Q15388 1-145), in assay [1], the Mascot-score (PCNA pull down) was determined as 32.5.

For the molecule mock antibody specific for TOM20, the Sequest score (mock anti-TOM20 pull down) is 2.09 in assay [2], 1.79 in assay [3] and 1.61 in assay [4]. The Mascot score (mock anti-TOM20 pull down) in assay [4] was determined as 25.1.

B1: R11 (peptide)
peptide: RRRRRRRRRRR
notes: Cell penetrating peptide part alone, used as a control; also called R11 peptide; R11 (negative control)
B1: the binding result in assay [5] is reported as “no binding”.
